Experiments:
[1] = biological target: T1, Full-length ETV4 Ile372Ala (UniProt P43268 1-484, Ile372Ala); assay: BLI
T1 sequence (looked up): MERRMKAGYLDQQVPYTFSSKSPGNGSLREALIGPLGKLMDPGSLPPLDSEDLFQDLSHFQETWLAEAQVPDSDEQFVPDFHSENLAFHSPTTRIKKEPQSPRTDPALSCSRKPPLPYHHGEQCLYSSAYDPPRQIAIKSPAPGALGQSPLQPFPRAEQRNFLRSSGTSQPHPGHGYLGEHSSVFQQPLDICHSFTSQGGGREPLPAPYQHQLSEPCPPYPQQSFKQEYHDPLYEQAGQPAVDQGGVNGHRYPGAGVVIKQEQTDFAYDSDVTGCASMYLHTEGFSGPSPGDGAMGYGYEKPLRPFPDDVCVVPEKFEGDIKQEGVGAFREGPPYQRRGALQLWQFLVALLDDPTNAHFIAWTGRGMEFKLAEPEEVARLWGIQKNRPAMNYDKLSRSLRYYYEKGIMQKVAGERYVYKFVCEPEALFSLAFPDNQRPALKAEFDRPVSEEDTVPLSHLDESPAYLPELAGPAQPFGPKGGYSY

JUN/FOS heterodimers = JUN/FOS heterodimers (UniProt P05412 1-331; P01100 1-380); assay: BLI
JUN/FOS heterodimers, sequence (P05412 whole entry, chain 1 of 2): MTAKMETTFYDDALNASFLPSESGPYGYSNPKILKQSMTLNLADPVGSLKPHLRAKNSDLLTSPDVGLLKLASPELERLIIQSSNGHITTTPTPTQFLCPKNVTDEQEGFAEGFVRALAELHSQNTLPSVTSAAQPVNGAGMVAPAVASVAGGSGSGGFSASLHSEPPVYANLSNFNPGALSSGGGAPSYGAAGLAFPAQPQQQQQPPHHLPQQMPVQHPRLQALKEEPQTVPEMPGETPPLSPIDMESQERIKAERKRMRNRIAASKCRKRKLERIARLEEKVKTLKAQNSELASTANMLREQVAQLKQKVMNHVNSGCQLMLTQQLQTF
JUN/FOS heterodimers, sequence (P01100 whole entry, chain 2 of 2): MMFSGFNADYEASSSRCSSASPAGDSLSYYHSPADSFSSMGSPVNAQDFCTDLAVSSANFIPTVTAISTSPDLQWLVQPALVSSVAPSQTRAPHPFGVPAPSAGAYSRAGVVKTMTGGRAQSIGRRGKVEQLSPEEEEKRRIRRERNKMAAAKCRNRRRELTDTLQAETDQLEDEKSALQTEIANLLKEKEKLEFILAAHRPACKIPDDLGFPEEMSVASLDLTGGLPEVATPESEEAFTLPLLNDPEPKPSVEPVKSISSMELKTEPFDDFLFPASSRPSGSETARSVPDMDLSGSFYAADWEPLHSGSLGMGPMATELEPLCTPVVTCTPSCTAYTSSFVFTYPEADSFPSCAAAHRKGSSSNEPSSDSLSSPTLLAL

B1: MED25 ACID (residues 391–553), biotinylated ligand for biolayer interferometry (domain or fragment, human, UniProt Q71SY5 391-553, looked up)
chain: GQQSVSNKLLAWSGVLEWQEKPKPASVDANTKLTRSLPCQVYVNHGENLKTEQWPQKLIMQLIPQQLLTTLGPLFRNSRMVQFHFTNKDLESLKGLYRIMGNGFAGCVHFPHTAPCEVRVLMLLYSSKKKIFMGLIPYDQSGFVNGIRQVITNHKQVQQQKLE
modifications: biotin (biotinylated; D-biotin added at the induction point)
binding result [1]: binds | Kd (JUN/FOS heterodimers): 5 nM

From PMC5632138 (Journal of molecular biology, 2017)
